Patent US6989362B1, “Methods of treating dopamine dysregulation using agents that regulate phosphorylation/dephosphorylation in dopamine signaling” (The Rockefeller University, priority 1999, dated 2006)

Target: PKA (Homo sapiens, UniProt P17612)
Assay: Inhibition of PKA phosphorylation of substrates in vitro (kinetic analysis)
Assay type: biochemical
Description: Tissue was processed as described in the legend to FIGS. 1a-1e and immunoblotted for phospho-Thr75 (FIG. 2a), total DARPP-32 (FIG. 2b), or phospho-Thr34 (FIG. 2c). […] Purified DARPP-32 was phosphorylated to a stoichiometry of 0.93 mol/mol using native cdk1/cyclin B purified from sea star. Phospho-Thr75 DARPP-32 was precipitated from the reaction mixture with 5% TCA, resuspended in 1M Tris-HCl (pH 8.8), and dialyzed against 10 mM HEPES (pH 7.4). […] FIG. 2g depicts a Lineweaver-Burki kinetic analysis of PKA phosphorylation of ARPP-21 in the presence of 0 (◯), 5 (□), 10 (⋄), or 15 (Δ) μM Phospho-Thr75 DARPP-32.

rates of phosphorylation by PKA of inhibitor-1, ARPP-21, synapsin I and histone H1 (15 μM phospho-Thr75 DARPP-32, purified catalytic subunit of PKA): dramatic reduction
mechanism of PKA inhibition (ARPP-21 phosphorylation, 0-15 μM inhibitor): linear competitive single site mechanism
B1: phospho-Thr75 DARPP-32: the phosphorylated form of Thr75 DARPP-32; inhibitor of PKA (protein, listed as Homo sapiens)
chain: MDPKDRKKIQFSVPAPPSQLDPRQVEMIRRRRPTPAMLFRLSEHSSPEEEASPHQRASGEGHHLKSKRPNPCAYTPPSLKAVQRIAESHLQSISNLNENQASEEEDELGELRELGYPREEDEEEEEDDEEEEEEEDSQAEVLKVIRQSAGQKTTRGLGLEGPWERPPPLDESERDGGSEDQVEDPALSEPGEEPQRPSPSEPGR
modifications: phosphorylated Thr75
